Reference: publication PMC9203054, “Dynamics of allosteric regulation of the phospholipase C-γ isozymes upon recruitment to membranes” (eLife, 2022)

How the values were obtained:
[1] = target: PLC-γ1 pTyr783 peptide peptide encompassing pTyr783 (Homo sapiens) (UniProt P19174); details: cited from earlier work
[2] = target: T1, wild-type PLC-γ1, rat phospholipase C-γ1 residues 21–1215 (rat, UniProt P10686 21-1215); experiment: cell-based or functional assay
T1 sequence (looked up): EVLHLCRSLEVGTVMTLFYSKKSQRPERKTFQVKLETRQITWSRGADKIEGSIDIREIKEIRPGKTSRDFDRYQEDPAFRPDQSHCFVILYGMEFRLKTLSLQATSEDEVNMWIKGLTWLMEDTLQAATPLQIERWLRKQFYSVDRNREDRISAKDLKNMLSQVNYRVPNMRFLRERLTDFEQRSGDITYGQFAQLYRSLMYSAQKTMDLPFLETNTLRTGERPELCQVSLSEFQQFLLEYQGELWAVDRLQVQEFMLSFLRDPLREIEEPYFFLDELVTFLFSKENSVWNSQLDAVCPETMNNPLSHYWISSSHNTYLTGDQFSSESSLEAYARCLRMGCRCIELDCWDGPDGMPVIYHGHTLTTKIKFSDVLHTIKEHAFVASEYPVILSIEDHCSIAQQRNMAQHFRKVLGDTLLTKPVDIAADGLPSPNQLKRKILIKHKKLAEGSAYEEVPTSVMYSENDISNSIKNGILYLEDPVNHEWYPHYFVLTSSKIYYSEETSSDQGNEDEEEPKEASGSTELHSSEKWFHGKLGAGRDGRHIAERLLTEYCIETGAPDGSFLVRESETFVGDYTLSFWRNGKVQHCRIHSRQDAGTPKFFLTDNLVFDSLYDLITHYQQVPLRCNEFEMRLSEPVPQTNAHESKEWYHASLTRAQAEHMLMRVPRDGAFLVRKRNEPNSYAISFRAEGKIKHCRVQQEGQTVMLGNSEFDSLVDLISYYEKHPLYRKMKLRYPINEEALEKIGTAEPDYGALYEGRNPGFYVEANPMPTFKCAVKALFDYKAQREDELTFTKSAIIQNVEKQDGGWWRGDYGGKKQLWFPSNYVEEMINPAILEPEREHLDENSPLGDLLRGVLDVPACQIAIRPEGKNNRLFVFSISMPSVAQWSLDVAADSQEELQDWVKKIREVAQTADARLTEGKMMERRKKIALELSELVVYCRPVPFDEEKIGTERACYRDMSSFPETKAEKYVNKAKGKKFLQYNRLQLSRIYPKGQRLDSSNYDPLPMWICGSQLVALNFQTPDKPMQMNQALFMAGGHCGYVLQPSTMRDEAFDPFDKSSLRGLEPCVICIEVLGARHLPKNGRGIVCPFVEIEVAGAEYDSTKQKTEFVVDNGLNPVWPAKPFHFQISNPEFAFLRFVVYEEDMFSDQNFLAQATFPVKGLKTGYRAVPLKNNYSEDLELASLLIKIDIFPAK

[3] = target: T2, PLC-γ1 (D1165H), rat phospholipase C-γ1 residues 21–1215 (rat, UniProt P10686 21-1215, D1165H); experiment: cell-based or functional assay
T2 sequence (looked up): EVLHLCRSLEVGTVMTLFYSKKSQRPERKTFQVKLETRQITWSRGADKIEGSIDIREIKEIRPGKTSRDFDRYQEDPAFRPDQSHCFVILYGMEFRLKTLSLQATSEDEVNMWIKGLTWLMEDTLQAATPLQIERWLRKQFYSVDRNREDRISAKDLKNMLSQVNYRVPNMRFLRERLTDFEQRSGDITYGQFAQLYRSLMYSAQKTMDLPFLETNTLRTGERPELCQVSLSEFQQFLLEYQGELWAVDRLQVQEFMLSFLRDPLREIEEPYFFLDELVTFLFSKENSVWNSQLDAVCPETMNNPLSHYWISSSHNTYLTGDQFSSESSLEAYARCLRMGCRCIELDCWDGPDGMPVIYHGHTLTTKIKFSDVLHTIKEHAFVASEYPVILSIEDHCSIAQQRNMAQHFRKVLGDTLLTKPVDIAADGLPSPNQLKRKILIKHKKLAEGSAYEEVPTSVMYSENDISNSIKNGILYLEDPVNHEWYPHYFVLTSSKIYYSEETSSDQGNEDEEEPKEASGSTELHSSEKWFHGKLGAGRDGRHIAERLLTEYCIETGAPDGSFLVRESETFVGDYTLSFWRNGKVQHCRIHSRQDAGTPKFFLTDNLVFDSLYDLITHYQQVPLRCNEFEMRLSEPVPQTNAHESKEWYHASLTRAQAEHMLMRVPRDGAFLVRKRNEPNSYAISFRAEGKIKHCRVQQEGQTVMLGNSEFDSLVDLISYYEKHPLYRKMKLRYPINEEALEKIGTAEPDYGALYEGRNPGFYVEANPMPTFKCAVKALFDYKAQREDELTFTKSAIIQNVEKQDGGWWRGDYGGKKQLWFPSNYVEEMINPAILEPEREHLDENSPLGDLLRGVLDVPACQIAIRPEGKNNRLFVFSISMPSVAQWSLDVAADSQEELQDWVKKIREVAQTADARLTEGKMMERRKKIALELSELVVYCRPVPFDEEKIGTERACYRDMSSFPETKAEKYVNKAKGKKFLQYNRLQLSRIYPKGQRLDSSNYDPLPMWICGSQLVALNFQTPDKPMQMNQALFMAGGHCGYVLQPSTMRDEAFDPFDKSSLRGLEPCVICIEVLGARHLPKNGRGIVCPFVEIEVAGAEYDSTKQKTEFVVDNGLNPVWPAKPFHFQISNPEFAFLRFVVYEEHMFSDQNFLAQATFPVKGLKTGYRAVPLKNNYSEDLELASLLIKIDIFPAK

[4] = target: T3, PLC-γ1 (H335A), rat phospholipase C-γ1 residues 21–1215 (rat, UniProt P10686 21-1215, H335A); experiment: SEC; PLC-γ1 variant mixed with phosphorylated kinase-inactive FGFR1K (two-fold molar excess of one partner), Superdex 200 GL 10 mm x 300 mm, 20 mM HEPES pH 7.5, 100 mM NaCl, 10 mM MgCl2, 2 mM DTT; fractions by SDS-PAGE and Coomassie; complex of PLC-γ1 (H335A) run again after 8 hr on ice; details: both partners purified
T3 construct: phospholipase C-γ1, rat, residues 21–1215, with H335A; source: High Five (Trichoplusia ni) cells, baculovirus, purified (HisTrap IMAC, TEV cleavage, SourceQ, Superdex 200); not shown: His6, N-terminal, cleaved
T3 sequence (looked up): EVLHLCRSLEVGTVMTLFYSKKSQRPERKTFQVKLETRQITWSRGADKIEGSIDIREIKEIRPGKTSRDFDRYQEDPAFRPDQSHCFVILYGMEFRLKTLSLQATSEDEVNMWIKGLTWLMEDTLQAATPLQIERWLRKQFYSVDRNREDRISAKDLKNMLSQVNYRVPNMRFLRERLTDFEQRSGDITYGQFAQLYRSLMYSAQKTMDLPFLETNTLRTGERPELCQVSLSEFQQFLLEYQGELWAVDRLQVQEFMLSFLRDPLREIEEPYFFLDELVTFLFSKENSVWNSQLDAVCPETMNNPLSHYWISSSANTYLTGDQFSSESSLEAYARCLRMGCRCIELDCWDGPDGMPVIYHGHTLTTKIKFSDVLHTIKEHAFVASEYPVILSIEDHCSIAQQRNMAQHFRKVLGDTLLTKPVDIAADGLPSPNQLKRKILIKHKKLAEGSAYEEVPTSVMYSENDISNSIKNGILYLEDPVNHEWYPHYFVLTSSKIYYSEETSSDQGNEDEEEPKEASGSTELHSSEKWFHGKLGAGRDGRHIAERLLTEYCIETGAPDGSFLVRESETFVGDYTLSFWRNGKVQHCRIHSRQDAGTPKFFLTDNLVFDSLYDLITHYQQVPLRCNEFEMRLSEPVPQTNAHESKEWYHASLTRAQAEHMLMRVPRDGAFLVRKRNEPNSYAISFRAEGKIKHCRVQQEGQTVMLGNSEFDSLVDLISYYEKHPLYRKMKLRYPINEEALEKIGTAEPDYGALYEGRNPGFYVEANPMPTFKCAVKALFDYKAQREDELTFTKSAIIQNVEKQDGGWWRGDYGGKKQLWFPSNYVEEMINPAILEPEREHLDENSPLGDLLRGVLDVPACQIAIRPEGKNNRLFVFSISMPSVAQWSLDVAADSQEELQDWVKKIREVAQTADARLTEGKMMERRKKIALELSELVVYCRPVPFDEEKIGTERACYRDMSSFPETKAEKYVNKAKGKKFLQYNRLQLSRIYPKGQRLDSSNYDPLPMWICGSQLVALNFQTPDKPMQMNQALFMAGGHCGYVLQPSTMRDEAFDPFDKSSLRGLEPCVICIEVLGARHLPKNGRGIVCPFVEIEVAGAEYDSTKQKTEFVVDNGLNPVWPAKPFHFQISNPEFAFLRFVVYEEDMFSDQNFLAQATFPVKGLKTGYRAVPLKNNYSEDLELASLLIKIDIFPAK

[5] = target: T4, PLC-γ1 (H335A+D1165H), rat phospholipase C-γ1 residues 21–1215 (rat, UniProt P10686 21-1215, H335A | D1165H); experiment: as above; details: both partners purified
T4 construct: phospholipase C-γ1, rat, residues 21–1215, with H335A and D1165H; PDB 6PBC is the cited structure of the parent; also called oncogenic mutant of PLC-γ1; source: High Five (Trichoplusia ni) cells, baculovirus, purified (HisTrap IMAC, TEV cleavage, SourceQ, Superdex 200); not shown: His6, N-terminal, cleaved
T4 sequence (looked up): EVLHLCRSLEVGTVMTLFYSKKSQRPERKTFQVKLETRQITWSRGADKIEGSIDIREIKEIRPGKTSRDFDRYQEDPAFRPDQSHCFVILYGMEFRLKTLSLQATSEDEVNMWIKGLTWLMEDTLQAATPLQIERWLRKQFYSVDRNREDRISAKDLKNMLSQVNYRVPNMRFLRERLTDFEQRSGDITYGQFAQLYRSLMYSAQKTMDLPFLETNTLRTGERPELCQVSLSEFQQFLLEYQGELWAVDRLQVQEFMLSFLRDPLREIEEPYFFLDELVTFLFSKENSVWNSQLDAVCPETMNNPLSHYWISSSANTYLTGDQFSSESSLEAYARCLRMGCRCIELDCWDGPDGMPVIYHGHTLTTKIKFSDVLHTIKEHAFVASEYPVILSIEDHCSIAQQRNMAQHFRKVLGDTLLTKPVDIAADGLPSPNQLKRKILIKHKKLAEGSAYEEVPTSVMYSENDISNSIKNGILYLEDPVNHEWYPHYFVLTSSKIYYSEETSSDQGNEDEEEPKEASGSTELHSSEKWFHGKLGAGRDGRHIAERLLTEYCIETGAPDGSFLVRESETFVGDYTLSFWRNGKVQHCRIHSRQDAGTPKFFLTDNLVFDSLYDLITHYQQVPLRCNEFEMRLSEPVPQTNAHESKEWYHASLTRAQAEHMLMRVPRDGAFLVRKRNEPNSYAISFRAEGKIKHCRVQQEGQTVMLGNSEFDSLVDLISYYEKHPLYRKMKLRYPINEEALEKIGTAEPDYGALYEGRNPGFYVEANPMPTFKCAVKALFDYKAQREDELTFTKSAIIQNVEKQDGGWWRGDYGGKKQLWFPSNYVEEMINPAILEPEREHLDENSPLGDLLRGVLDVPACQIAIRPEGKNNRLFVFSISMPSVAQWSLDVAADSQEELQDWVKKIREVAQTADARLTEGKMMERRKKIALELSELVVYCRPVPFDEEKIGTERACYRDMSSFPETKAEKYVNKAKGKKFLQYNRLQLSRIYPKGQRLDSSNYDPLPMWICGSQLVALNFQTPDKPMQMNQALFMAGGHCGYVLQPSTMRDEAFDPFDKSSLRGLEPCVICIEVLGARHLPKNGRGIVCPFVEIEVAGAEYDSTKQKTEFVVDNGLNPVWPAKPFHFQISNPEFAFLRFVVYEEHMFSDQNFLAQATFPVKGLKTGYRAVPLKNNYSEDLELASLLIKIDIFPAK

Molecule: PLC-γ1 cSH2 domain cSH2 (from UniProt P19174)
- Kd [1]: 360 nM

B1: kinase-inactive kinase domain of human FGFR1 (residues 458–774) phosphorylated at Tyr766 (domain or fragment, UniProt P11362 458-774, looked up)
chain: AGVSEFELPEDPRWELPRDRLVLGKPLGEGCFGQVVLAEAIGLDKDKPNRVTKVAVKMLKSDATEKDLSDLISEMEMMKMIGKHKNIINLLGACTQDGPLYVIVEYASKGNLREYLQARRPPGLEFCFNPSHNPEEQLSSKDLVSCAYQVARGMEYLASKKCIHRDLAARNVLVTEDNVMKIADFGLARDIHHIDFFKKTTNGRLPVKWMAPEALFDRIYTHQSDVWSFGVLLWEIFTLGGSPYPGVPVEELFKLLKEGHRMDKPSNCTNELFMMMRDCWHAVPSQRPTFKQLVEDLDRIVALTSNQEYLDLSMPLD
modifications: phosphotyrosine at 766
notes: fibroblast growth factor receptor 1, human, kinase domain residues 458–774, six tyrosines changed to phenylalanine; Phosphorylation specifically at Tyr766 confirmed by LC-MS/MS; also called pFGFR1K; phosphorylated FGFR1K; source: High Five cells, baculovirus, purified (HisTrap IMAC, TEV cleavage, Superdex 200); phosphorylated in vitro with His6-tagged kinase-active FGFR1K (Y766F), separated by …
- specific lipase activity of PLC-γ1 (10 nM) on XY-69 in PE:PIP2 (80:20) liposomes, pre-incubated with a two-fold molar excess of pFGFR1K, against PLC-γ1 alone [2]: ~3 fold
- basal lipase activity of PLC-γ1 (D1165H) (0.3 nM) on XY-69 in PE:PIP2 (80:20) liposomes with a two-fold molar excess of pFGFR1K, against PLC-γ1 (D1165H) alone [3]: ~2 fold
- binding result [4]: binds
- binding result [5]: binds
